Two molecules from patent publication US20140348902A1 (University of Texas, published 2014) can be followed below.

Test [1] deals with T1, HLA-A2 (HLA-A*0201) on TAP-deficient T2 cells (human).
T1 construct: also called MHC I (HLA-A2)
The test is described as follows: T2 cell peptide-binding assay, flow cytometry for HLA-A2. In general terms: Flow cytometry measures light scatter and fluorescence of single cells or particles in a stream.
Experimental: (§1) TAP-deficient T2 cells were incubated with 20 μg/ml of peptides and 3 μg/ml of β₂-microglobulin (Sigma-Aldrich, Cat # M4890) for 24 hours at 37° C. and 5% CO₂ in air. […] The binding affinity of the peptide to HLA-A2 (T2 binding index) was quantified as follows: (Mean fluorescence intensity [MFI] of HLA-A2 with peptide—MFI of HLA-A2 without peptide)/(MFI of HLA-A2 without peptide).

In test [2] the target is T1, HLA-A2 (HLA-A*0201) on TAP-deficient T2 …. Briefly: T2 binding assay, flow cytometry for HLA-A2.
Experimental: as §1

Turning to LLPIMWQL (Synthetic peptide) [TCL1 71-78 peptide (LLPIMWQL)], in test [1], the binding result is “binds”.

B1: TCL1 65-79 peptide (TQIGPSLLPIMWQLY) (peptide)
peptide: TQIGPSLLPIMWQLY
notes: Synthetic peptide (Sigma-Aldrich, >70% purity); also called P17
Consider B1, for which, in test [2], the binding result was “binds”.
